The target in experiment [1] is T1, his-tagged human CDH6 extracellular region protein (hCDH6 ECD-his) (human, UniProt P55285 19-615).
T1 construct: also called Human CDH6-his; hCDH6-his; not shown: his tag
T1 sequence: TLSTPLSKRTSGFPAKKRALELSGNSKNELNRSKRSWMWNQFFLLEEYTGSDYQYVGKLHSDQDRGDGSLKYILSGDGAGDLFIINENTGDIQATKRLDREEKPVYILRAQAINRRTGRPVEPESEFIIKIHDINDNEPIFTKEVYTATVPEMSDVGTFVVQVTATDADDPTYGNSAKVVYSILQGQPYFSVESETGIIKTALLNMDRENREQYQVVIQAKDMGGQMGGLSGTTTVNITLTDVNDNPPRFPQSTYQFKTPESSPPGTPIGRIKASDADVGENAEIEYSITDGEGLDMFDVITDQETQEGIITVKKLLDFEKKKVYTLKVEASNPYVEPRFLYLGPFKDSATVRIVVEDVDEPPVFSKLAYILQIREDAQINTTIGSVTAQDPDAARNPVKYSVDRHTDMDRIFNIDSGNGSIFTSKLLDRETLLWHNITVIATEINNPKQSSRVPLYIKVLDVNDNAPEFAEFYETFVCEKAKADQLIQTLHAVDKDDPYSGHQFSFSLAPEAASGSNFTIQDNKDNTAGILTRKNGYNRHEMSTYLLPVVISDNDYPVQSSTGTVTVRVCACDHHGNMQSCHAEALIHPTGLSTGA
Briefly: ELISA, coated antigen. The method, then:
Human CDH6 protein (hCDH6 ECD-his, conventionally synthesized), monkey CDH6 protein (cynoCDH6 ECD-his, conventionally synthesized; the cynoCDH6 ECD sequence was derived from Uniprot #A0A2K5TW62 (19-615)), and murine CDH6 protein (mCDH6 ECD-his, conventionally synthesized; the mCDH6 ECD sequence was derived from Uniprot #P97326 (19-615)) were diluted with PBS to a final concentration of 1 μg/mL, and added to a 96-well ELISA plate at 100 μL/well. The plate was incubated at 4° C. overnight. The next day, the plate was washed 3 times with a plate washing solution (PBS+0.01% (v/v) Tween 20), and a blocking buffer (PBS+0.01% (v/v) Tween 20+2% (w/w) BSA) was added for blocking at room temperature for 2 h. The blocking buffer was discarded, and the plate was washed 3 times. The chimeric antibodies were diluted with 1% BSA+PBS (purchased from Cytiva, Cat. No. SH30264.01) and added to the 96-well plate at 50 μL/well. After incubation at 37° C. for 2 h, the plate was washed 3 times with a plate washing solution. […] The plate was incubated at 37° C. for 1 h and then washed 5 times with a plate washing solution. A TMB substrate (purchased from Seracare, Cat. No. 5120-0077) was added at 50 μL/well and incubated at room temperature for 10 min, then a stop solution (1.0 N HCl) was added at 50 μL/well. OD450 nm values were read using a microplate reader (Biotek). Analysis was performed by the GraphPad Prism software, data were fitted, and EC50 values were calculated. The chimeric antibodies tested all had strong binding to the human CDH6 protein, the monkey CDH6 protein, and the murine CDH6 protein.
(§1) According to the above sequences, heavy chain (HC) and light chain (LC) plasmids were constructed (the nucleic acid sequences encoding the VH and VL of the antibodies were recombined into an expression vector carrying a signal peptide (SEQ ID NO: 132, […]) and a heavy chain constant region/light chain constant region sequence to obtain recombinant plasmids expressing VH-CH1-Fc/VL-CL).

Experiment [2] has as its target T2, human CDH6 on tumor cells (OVCAR3 cells, PA-1 cells) (human, UniProt P55285 54-790).
T2 sequence: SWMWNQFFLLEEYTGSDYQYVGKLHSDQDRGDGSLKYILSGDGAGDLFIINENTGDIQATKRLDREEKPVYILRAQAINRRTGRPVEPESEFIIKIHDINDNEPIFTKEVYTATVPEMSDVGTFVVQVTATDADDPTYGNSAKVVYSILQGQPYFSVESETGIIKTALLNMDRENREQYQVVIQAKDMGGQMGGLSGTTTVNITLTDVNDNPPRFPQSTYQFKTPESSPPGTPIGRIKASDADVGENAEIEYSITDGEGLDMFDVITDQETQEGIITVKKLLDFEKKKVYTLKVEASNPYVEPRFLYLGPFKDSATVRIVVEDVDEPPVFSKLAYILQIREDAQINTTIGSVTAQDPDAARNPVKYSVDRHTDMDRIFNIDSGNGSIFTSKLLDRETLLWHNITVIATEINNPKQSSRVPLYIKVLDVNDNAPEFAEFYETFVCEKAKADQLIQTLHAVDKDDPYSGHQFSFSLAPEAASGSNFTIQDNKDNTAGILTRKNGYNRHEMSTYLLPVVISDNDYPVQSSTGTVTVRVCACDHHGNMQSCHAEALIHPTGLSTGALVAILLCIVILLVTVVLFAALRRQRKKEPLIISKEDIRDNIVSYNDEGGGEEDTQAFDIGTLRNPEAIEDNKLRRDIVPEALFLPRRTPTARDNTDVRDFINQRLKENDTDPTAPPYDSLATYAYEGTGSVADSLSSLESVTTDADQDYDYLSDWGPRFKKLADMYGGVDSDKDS
The experiment can be described thus: FACS, PA-1 cells. The method, then: OVCAR3 cells with high expression of CDH6 and PA-1 cells with moderate expression of CDH6 were used to detect the binding activity of the antibodies to the cells. […] The cells were washed once with PBS, counted, resuspended to 2×10⁶ cells/mL in an FACS buffer (PBS+2% FBS), and then added to a 96-well plate at 50 μL/well. The chimeric antibodies were diluted with FACS buffer (PBS+2% FBS) and added to the 96-well plate at 50 μL/well, and the plate was incubated at 4° C. for 1 h. […] The dilution was added to the 96-well plate at 50 μL/well, and the plate was incubated at 4° C. for 1 h. After the plates were centrifuged and washed 2 times with PBS, the cells were resuspended in an FACS buffer. The mean fluorescence intensity (MFI) was measured using FACS Canton II (BD). Analysis was performed by the GraphPad Prism software, data were fitted, and EC50 values were calculated. The chimeric antibodies tested had strong binding to both OVCAR3 cells and PA-1 cells.
as §1, with “VH-CH1-Fc/VL-CL). According to the expression and purification methods in Example 2, the hCDH6-14 humanized antibodies were obtained, and the binding activity of the humanized antibodies was detected by ELISA and FACS (see 2.2 and 2.3 for the method).” for “VH-CH1-Fc/VL-CL).”

B1: hCDH6-14-H1L1 (antibody, V domains shown)
VH: EVQLVQSGAEVKKPGASVKVSCKASGYTFTDNYINWVRQAPGQRLEWMGWIYPGTGNSYYNEKFKGRVTITVDTSASTAYMELSSLRSEDTAVYYCASSYGDSFDYWGQGTTVTVSS
VL: DIQMTQSPSSLSASVGDRVTITCRASQDIRNYLNWYQQKPGKAFKLLISYTSRLHSGVPSRFSGSGSGTDFTFTISSLQPEDIATYYCQQYSQLPWTFGGGTKVEIK
notes: Humanized
On to B1, for which, in experiment [1], the EC50 came out at 0.059 nM and the “Max OD450” value is 2.69 OD450. In addition, in experiment [2], the EC50 stood at 0.26 nM and the “Max MFI” value is 3680 MFI.

B2: hCDH6-14-H3L1 (antibody, V domains shown)
VH: EIQLVQSGAEVKKPGASVKVSCKASGYTFTDNYINWVRQAPGQRLEWMGWIYPGTGNSYYNEKFKGRVTLTVDTSASTAYMELSSLRSEDTAVYYCASSYGDSFDYWGQGTTVTVSS
VL: DIQMTQSPSSLSASVGDRVTITCRASQDIRNYLNWYQQKPGKAFKLLISYTSRLHSGVPSRFSGSGSGTDFTFTISSLQPEDIATYYCQQYSQLPWTFGGGTKVEIK
notes: Humanized
As to B2, in experiment [1], it took 0.096 nM to reach a half-maximal effect (EC50) and the “Max OD450” value was 2.62 OD450. Besides, in experiment [2], the EC50 was determined as 0.26 nM and the “Max MFI” value came to 3490 MFI.

B3: hCDH6-14-H2L2 (antibody, V domains shown)
VH: EIQLVQSGAEVKKPGASVKVSCKASGYTFTDNYINWVRQAPGQRLEWMGWIYPGTGNSYYNEKFKGRVTITVDTSASTAYMELSSLRSEDTAVYYCASSYGDSFDYWGQGTTVTVSS
VL: DIQMTQSPSSLSASVGDRVTITCRASQDIRNYLNWYQQKPGGAPKLLISYTSRLHSGVPSRFSGSGSGTDFTFTISSLQPEDIATYYCQQYSQLPWTFGGGTKVEIK
notes: Humanized
Take B3: in experiment [1], a half-maximal effect (EC50) was put at 0.098 nM and the “Max OD450” value amounted to 2.54 OD450. For the same molecule, in experiment [2], the response was half-maximal at 0.27 nM (EC50) and the “Max MFI” value amounted to 3930 MFI.

B4: hCDH6-14-H2L1 (antibody, V domains shown)
VH: EIQLVQSGAEVKKPGASVKVSCKASGYTFTDNYINWVRQAPGQRLEWMGWIYPGTGNSYYNEKFKGRVTITVDTSASTAYMELSSLRSEDTAVYYCASSYGDSFDYWGQGTTVTVSS
VL: DIQMTQSPSSLSASVGDRVTITCRASQDIRNYLNWYQQKPGKAFKLLISYTSRLHSGVPSRFSGSGSGTDFTFTISSLQPEDIATYYCQQYSQLPWTFGGGTKVEIK
notes: Humanized
As for B4, in experiment [1], the EC50 is 0.076 nM and the “Max OD450” value turned out to be 2.65 OD450. Moreover, in experiment [2], the EC50 was found to be 0.25 nM and the “Max MFI” value was 3560 MFI.

B5: hCDH6-14-H1L2 (antibody, V domains shown)
VH: EVQLVQSGAEVKKPGASVKVSCKASGYTFTDNYINWVRQAPGQRLEWMGWIYPGTGNSYYNEKFKGRVTITVDTSASTAYMELSSLRSEDTAVYYCASSYGDSFDYWGQGTTVTVSS
VL: DIQMTQSPSSLSASVGDRVTITCRASQDIRNYLNWYQQKPGGAPKLLISYTSRLHSGVPSRFSGSGSGTDFTFTISSLQPEDIATYYCQQYSQLPWTFGGGTKVEIK
notes: Humanized
On to B5, for which, in experiment [1], it took 0.128 nM to reach a half-maximal effect (EC50) and the “Max OD450” value turned out to be 2.84 OD450. Further, in experiment [2], the EC50 was found to be 0.22 nM and the “Max MFI” value was determined as 3600 MFI.

B6: hCDH6-14-H5L1 (antibody, V domains shown)
VH: EVQLQQSGAEVKKPGASVKVSCKASGYTFTDNYINWVRQAPGQRLEWMGWIYPGTGNSYYNEKFKGRVTITVDTSASTAYMELSSLRSEDTAVYYCASSYGDSFDYWGQGTTVTVSS
VL: DIQMTQSPSSLSASVGDRVTITCRASQDIRNYLNWYQQKPGKAFKLLISYTSRLHSGVPSRFSGSGSGTDFTFTISSLQPEDIATYYCQQYSQLPWTFGGGTKVEIK
notes: Humanized
As to B6, in experiment [1], the EC50 turned out to be 0.079 nM and the “Max OD450” value was determined as 2.81 OD450. Moreover, in experiment [2], a half-maximal response (EC50) required 0.25 nM and the “Max MFI” value turned out to be 3780 MFI.

B7: hCDH6-14-H3L2 (antibody, V domains shown)
VH: EIQLVQSGAEVKKPGASVKVSCKASGYTFTDNYINWVRQAPGQRLEWMGWIYPGTGNSYYNEKFKGRVTLTVDTSASTAYMELSSLRSEDTAVYYCASSYGDSFDYWGQGTTVTVSS
VL: DIQMTQSPSSLSASVGDRVTITCRASQDIRNYLNWYQQKPGGAPKLLISYTSRLHSGVPSRFSGSGSGTDFTFTISSLQPEDIATYYCQQYSQLPWTFGGGTKVEIK
notes: Humanized
As for B7, in experiment [1], the EC50 stood at 0.074 nM and the “Max OD450” value was determined as 2.63 OD450. In experiment [2], the EC50 was 0.23 nM and the “Max MFI” value stood at 3490 MFI.

B8: hCDH6-14-H4L2 (antibody, V domains shown)
VH: EVQLVQSGAEVKKPGASVKVSCKASGYTFTDNYINWVRQAPGQGLEWMGWIYPGTGNSYYNEKFKGRVTITVDTSASTAYMELSSLRSEDTAVYYCASSYGDSFDYWGQGTTVTVSS
VL: DIQMTQSPSSLSASVGDRVTITCRASQDIRNYLNWYQQKPGGAPKLLISYTSRLHSGVPSRFSGSGSGTDFTFTISSLQPEDIATYYCQQYSQLPWTFGGGTKVEIK
notes: Humanized
With B8, in experiment [1], the EC50 is 0.089 nM and the “Max OD450” value was 2.64 OD450. In addition, in experiment [2], the EC50 turned out to be 0.26 nM and the “Max MFI” value was 3570 MFI.

B9: hCDH6-14-H4L1 (antibody, V domains shown)
VH: EVQLVQSGAEVKKPGASVKVSCKASGYTFTDNYINWVRQAPGQGLEWMGWIYPGTGNSYYNEKFKGRVTITVDTSASTAYMELSSLRSEDTAVYYCASSYGDSFDYWGQGTTVTVSS
VL: DIQMTQSPSSLSASVGDRVTITCRASQDIRNYLNWYQQKPGKAFKLLISYTSRLHSGVPSRFSGSGSGTDFTFTISSLQPEDIATYYCQQYSQLPWTFGGGTKVEIK
notes: Humanized
As to B9, in experiment [1], the EC50 was 0.052 nM and the “Max OD450” value was 2.62 OD450. In experiment [2], the EC50 is 0.25 nM and the “Max MFI” value turned out to be 3820 MFI.

The values are drawn from patent publication US20260234242A1 (HAINAN SIMCERE ZAIMING PHARMACEUTICAL, published 2026).
